# B1: 5-FU-containing 38-mer duplex (dsDNA)
# DNA 1: TTTCTGACTTGGATACCAUCTATCTATCTATAAAATAT
# DNA 2: ATATTTTATAGATAGATAGATGGTATCCAAGTCAGAAA
# modifications: 5-fluoro-2'-deoxyuridine at position 19 of strand 1 (written U)
# B2: AA insertion/deletion loop duplex (dsDNA)
# DNA 1: TTTCTGACTTGGATACCATCTATCTATCTATAAAAAATAT
# DNA 2: B1 DNA 2
# How the values were obtained:
# [1] = molecular target: hMutSβ (hMSH2-hMSH3) (human, UniProt P43246;P20585 1-934;1-1137); test: SPR (IAsys); 10 mM Mg2+; EMSA: 100 nM hMutSβ, 20 mM HEPES pH 7.6, 1 mM EDTA, 1 mM DTT, 10% glycerol, 100 µg poly(dI-dC), 10 µl; IAsys: 100 nM protein, 25 mM Tris-Cl pH 7.8, 20 mM NaCl; details: protein: recombinant, copies: 1;1, label: 5'-32P on S5 (EMSA), 5'-biotin on S5 (IAsys)
# [2] = molecular target: hMutSα (human, UniProt P43246;P52701 1-934;1-1360); test: as above; details: protein: recombinant; copies: 1;1; label: 5'-32P on S5 (EMSA); 5'-biotin on S5 (IAsys); blunt; 5FdU opposite A by the printed complement
Binder,"binding signal ([1]; blunt, 5FdU opposite A by the printed complement) [fold vs complementary DNA]",binding signal [2],"binding signal ([1]; blunt ends, 2-nt AA loop in strand 1 (40 nt vs 38 nt)) [fold vs complementary DNA]"
B1,~1.3,~2 fold vs hMutSβ on same DNA,
B2,,,~1.8

# Reference: publication PMC3229514, “Both hMutSα and hMutSß DNA Mismatch Repair Complexes Participate in 5-Fluorouracil Cytotoxicity”
